Experimental data from patent US20220242948A1 (CARTEXELL, published 2022).

How the values were obtained:
[1] = target: T1, human L1CAM protein (hL1CAM, Sino biological, Cat No.10140-H08H) (human, UniProt P32004 20-1120); experiment: Octet, AR2G sensor, 3R-H8 loaded as ligand at 5 ug/ml (10 mM acetate pH 5.0), hL1CAM as analyte 0 ~ 200 nM in 1X PBS + 0.09% Tween
T1 construct: Bought protein used in the Octet assay; also called antigen hL1CAM
Experimental: (§1) The clone 3R-H8 showing the highest binding affinity among four types of anti-L1CAM scFv was subjected to a conversion procedure, thereby securing the whole IgG1 antibody. Through the Octet system (Forte Bio, Model No. QK384) using the purified whole IgG1 antibody, the antigen-antibody affinity was analyzed for the antigen hL1CAM (Sino biological, Cat No.10140-H08H) protein or mL1CAM (R&D, Cat No. 5674-NC) protein.

[2] = target: T2, mouse L1CAM (mL1CAM) protein fused with the Fc domain (R&D system, Cat No.5674-NC) (mouse, UniProt P11627 20-1123, limits assumed); experiment: BLI, Octet system (Forte Bio QK384)
T2 construct: Bought protein; also called mL1CAM-Fc; antigen mL1CAM; not shown: Fc domain
Experimental: as §1

[3] = target: T1, human L1CAM protein (hL1CAM, Sino …); experiment: BLI, Octet system (Forte Bio QK384)
Experimental: as §1

[4] = target: T2, mouse L1CAM (mL1CAM) protein fused with …; experiment: Octet, AR2G sensor, 3R-H8 loaded as ligand at 5 ug/ml (10 mM acetate pH 6.0), mL1CAM as analyte 0 ~ 100 nM in 1X PBS + 0.09% Tween; column head kdis(1/s)
Experimental: as §1

[5] = target: T2, mouse L1CAM (mL1CAM) protein fused with …; experiment: Octet, AR2G sensor, 3R-H8 loaded as ligand at 5 ug/ml (10 mM acetate pH 6.0), mL1CAM as analyte 0 ~ 100 nM in 1X PBS + 0.09% Tween
Experimental: as §1

[6] = target: T1, human L1CAM protein (hL1CAM, Sino …); experiment: Octet, AR2G sensor, 3R-H8 loaded as ligand at 5 ug/ml (10 mM acetate pH 5.0), hL1CAM as analyte 0 ~ 200 nM in 1X PBS + 0.09% Tween; column head kdis(1/s)
Experimental: as §1

[7] = target: T2, mouse L1CAM (mL1CAM) protein fused with …; experiment: monoclonal phage ELISA, plate coated with mL1CAM-Fc (3R clones), HRP-anti-M13, absorbance at 450 nm, cut-off 0.4
Experimental: Specifically, the antigen mL1CAM protein was added to 96-well plates, incubated at 4° C. overnight, and then blocked with 2% MPBS at 37° C. for 2 hours. Since the antigen mL1CAM protein was fused with the Fc domain, Fc as an Fc control was also added to the 96-well plates, incubated at 4° C. overnight, and blocked with 2% MPBS at 37° C. for 2 hours. Then, the phages (up to 10¹¹ cfu) were added to the 96-well plates. After incubation at room temperature for 90 minutes, HRP-anti-M13 (Sino Biological, Cat No. 11973-MM05) was diluted in PBS to 1:5000, and added to 96-well plates. After incubation at room temperature for 1 hour, TMB substrate (Sigma, Cat No. T0440) and 2N H2504 (Merck, Cat No.100731) were sequentially added, and the absorbance (OD) at 450 nm was measured. As a result, when the absorbance (A450 nm) cut-off for the antigen mL1CAM was set to at least 0.4 for selection, one clone in the 2nd round, a total of 26 clones in the 3rd round, and a total of 9 clones in the 4th round specifically bound (positive) to the antigen mL1CAM in ELISA (FIG. 3).

T1 sequence (P32004 20-1120 limits assumed): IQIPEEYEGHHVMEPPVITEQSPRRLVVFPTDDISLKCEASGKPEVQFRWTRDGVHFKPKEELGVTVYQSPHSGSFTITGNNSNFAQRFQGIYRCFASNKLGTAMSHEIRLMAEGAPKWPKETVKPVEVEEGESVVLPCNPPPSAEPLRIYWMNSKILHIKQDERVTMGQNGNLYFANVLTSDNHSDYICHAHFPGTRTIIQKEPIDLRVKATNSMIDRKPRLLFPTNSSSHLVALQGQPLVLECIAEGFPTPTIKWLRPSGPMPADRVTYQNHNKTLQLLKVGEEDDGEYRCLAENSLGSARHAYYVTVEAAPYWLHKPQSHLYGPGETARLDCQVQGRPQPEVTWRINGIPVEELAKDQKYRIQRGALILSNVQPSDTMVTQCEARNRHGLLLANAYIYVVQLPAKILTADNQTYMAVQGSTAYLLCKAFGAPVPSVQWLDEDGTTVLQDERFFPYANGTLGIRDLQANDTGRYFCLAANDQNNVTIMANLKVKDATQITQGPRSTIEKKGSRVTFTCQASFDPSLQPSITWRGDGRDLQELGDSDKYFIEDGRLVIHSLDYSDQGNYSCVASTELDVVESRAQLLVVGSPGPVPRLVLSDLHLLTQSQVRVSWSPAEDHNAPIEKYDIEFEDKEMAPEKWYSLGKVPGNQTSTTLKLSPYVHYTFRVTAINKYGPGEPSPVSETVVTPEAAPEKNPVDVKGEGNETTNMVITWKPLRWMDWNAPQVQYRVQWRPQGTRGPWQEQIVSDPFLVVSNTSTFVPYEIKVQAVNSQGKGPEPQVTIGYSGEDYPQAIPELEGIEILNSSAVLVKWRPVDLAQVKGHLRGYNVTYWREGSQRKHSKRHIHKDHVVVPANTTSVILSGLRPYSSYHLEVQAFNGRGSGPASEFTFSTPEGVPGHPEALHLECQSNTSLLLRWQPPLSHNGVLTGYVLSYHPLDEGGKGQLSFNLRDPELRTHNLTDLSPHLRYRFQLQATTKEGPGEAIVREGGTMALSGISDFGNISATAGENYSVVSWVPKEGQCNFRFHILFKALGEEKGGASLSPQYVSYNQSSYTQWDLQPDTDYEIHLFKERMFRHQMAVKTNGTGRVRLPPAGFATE
T2 sequence (P11627 20-1123 limits assumed): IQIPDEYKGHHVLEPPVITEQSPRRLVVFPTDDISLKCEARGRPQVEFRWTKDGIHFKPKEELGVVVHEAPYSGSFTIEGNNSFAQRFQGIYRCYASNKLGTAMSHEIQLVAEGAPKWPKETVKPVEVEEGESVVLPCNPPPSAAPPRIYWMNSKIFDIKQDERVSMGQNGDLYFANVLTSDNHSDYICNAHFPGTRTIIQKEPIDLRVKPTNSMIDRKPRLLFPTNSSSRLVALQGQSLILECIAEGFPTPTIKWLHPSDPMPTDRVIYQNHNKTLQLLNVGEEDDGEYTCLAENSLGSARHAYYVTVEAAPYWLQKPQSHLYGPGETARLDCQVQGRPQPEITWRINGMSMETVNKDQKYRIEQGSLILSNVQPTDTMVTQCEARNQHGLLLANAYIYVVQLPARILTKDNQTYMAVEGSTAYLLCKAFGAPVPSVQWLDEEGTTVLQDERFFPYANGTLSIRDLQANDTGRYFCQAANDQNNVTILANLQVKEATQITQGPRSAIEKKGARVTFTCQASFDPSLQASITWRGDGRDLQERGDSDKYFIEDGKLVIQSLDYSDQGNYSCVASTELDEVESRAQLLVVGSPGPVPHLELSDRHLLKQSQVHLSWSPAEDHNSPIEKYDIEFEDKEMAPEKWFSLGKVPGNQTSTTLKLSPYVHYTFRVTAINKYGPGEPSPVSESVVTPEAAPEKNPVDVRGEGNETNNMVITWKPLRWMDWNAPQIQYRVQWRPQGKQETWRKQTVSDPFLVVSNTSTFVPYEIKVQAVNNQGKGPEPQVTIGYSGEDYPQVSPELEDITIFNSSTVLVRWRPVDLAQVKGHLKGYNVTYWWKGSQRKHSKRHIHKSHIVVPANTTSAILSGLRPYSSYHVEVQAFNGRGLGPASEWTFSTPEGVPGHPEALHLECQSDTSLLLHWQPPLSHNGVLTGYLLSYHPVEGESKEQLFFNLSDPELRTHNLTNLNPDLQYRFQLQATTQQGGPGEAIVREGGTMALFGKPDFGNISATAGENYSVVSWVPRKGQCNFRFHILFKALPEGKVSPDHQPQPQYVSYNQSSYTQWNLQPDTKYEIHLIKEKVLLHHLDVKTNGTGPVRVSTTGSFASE

B1: whole IgG1 antibody converted from clone 3R-H8 (antibody, V domains shown)
VH: EVQLVESGGGLVQPGGSLRLSCAASGFTFSDYAMNWVRQAPGKGLEWVSAISSTGSTIYYADSVKGRFTISRDNSKNTLYLQMNSLRAEDTAVYYCAKQSTYFYSYFDVWGQGTLVTVSS
VL: not shown
notes: also called 3R-H8 whole IgG1; mL1CAM-3R-H8 IgG1
[1]
  kon: 57700 M⁻¹ s⁻¹
[2]
  Kd: 20.5 nM
[3]
  Kd: 4.14 nM
[4]
  koff: 0.00945 s⁻¹
[5]
  kon: 462000 M⁻¹ s⁻¹
[6]
  koff: 0.000239 s⁻¹

B2: E7 (scFv)
scFv (VH-linker-VL): EVQLVESGGGLVQPGGSLRLSCAASGFTFSSYAMHWVRQAPGKGLEWVSAISSSGSSKYYADSVKGRFTISRDNSKNTLYLQINSLRAEDTAVYYCAKDESYGWLYAFDLWGQGTLVTVSSGGGGSGGGGSGGGGSDIQMTQSPSSLSASVGDRVTITCRASQSISNYLNWYQQKPGKAPKLLIYAASRLQSGVPSRFSGSGSGTDFTLTISSLQPEDFATYYCQQSYSFPLTFGQGTKVEIK
notes: also called mL1CAM-3R-E7; ID 4 group
[7]
  binding result: binds

B3: G2 (scFv)
scFv (VH-linker-VL): EVQLVESGGGLVQPGGSLRLSCAASGFTFSSYAMHWVRQAPGKGLEWVSAISSSGSSKYYADSVKGRFTISRDNSKNTLYLQINSLRAEDTAVYYCAKDESYGWLYAFDLWGQGTLVTVSSGGGGSGGGGSGGGGSDIQMTQSPSSLSASVGDRVTITCRASQSISNYLNWYQQKPGKAPKLLIYAASRLQSGVPSRFSGSGSGTDFTLTISSLQPEDFATYYCQQSYSFPLTFGQGTKVEIK
notes: also called mL1CAM-3R-G2; ID 4 group
[7]
  binding result: binds
